Results taken from the supplement of paper PMC9170038.

Tested on: MS2 coat protein
Test: apparent KD of MS2 coat protein; higher = weaker reporter binding
Settings: Eterna round: R107
Method: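 RNA-MaP round R107: designed RNA switches with theophylline, tryptophan, arginine or FMN aptamers are transcribed on-chip within common flanks. They are titrated with SNAP-549-labelled MS2 coat protein in RNA-MaP buffer (100 mM Tris pH 7.5, 80 mM KCl, 4 mM MgCl2), without ligand or with the indicated ligand. Median apparent KD per design.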

[1] = input ligand: theophylline 20 uM
[2] = input ligand: theophylline 2 mM
[3] = input ligand: tryptophan 2.4 mM

AAACAUGAGGCGGCCGCCACUGUAUGAACAUGAGGAUCACCCAUGUAUGUACCCAUGUGUGUACACAGGACCGGGCCAUGUGGAU [Exclusion Tryptophan B 4]
apparent KD of MS2 coat protein (input ligand: arginine 13.2 mM): 24.8 nM
apparent KD of MS2 coat protein [1]: 32.3 nM
apparent KD of MS2 coat protein [2]: 27.8 nM

AAACGAGAGACAGAUACCAGCGCAGGAACGGAGUAUGGUGACAUGAGGAUCACCCAUGUGCGCCCUUGGCAGCUGAGCCGUAUUG [theeternabot_exclusion_MS2_Theo_B_37]
apparent KD of MS2 coat protein (input ligand: arginine 13.2 mM): 30 nM
apparent KD of MS2 coat protein [1]: 43.3 nM
apparent KD of MS2 coat protein [3]: 33.5 nM

AAACUGGGUGUAAAAUAAAUAAUCACUGAUACCAGACUAUUUUAUGUCCCUUGGCAGCAGAAACAUGAGGAUCACCCAUGUAAUA [JR_Nu_ExcTheophyA_Sub025]
apparent KD of MS2 coat protein (input ligand: arginine 13.2 mM): 21.2 nM
apparent KD of MS2 coat protein [1]: 25.3 nM
apparent KD of MS2 coat protein [3]: 26.7 nM

AAAGUUGAUGAGUUGUGUUUGUGUUCGGAAGGAGCGGGAAUUAUCUCAGGUAGGUCGCCGAACAUGAGGAUCACCCAUGUAUAAA [XArg-A 18 NuV2 original #dotplot2>1]
apparent KD of MS2 coat protein (input ligand: arginine 13.2 mM): 40.2 nM
apparent KD of MS2 coat protein (input ligand: none): 98.7 nM
apparent KD of MS2 coat protein [1]: 80.1 nM
apparent KD of MS2 coat protein [2]: 206 nM
apparent KD of MS2 coat protein [3]: 82.6 nM

AAAUCAGUCUGAAGGAGCGUCACAUGAGGAUCACCCAUGUACAUGAGGAUCACCCAUGUGUGACAGGUAGGUCGCAGAGGAUACC [Exclusion Arginine B GF 4]
apparent KD of MS2 coat protein (input ligand: arginine 13.2 mM): 125 nM
apparent KD of MS2 coat protein (input ligand: none): 169 nM
apparent KD of MS2 coat protein [1]: 168 nM
apparent KD of MS2 coat protein [2]: 207 nM
apparent KD of MS2 coat protein [3]: 213 nM

AAAUGAAGGCGAAGGAGCGCGAACAUGAGGAUCACCCAUGUGUAUGUAUGUAGUCAUGUAUCGCAGGUAGGUCGCGCUGUUACAU [Exclusion Arginine B]
apparent KD of MS2 coat protein (input ligand: arginine 13.2 mM): 106 nM
apparent KD of MS2 coat protein (input ligand: none): 278 nM
apparent KD of MS2 coat protein [1]: 276 nM
apparent KD of MS2 coat protein [2]: 352 nM
apparent KD of MS2 coat protein [3]: 271 nM

AAAUGAAGGCGAAGGAGCGGGAACAUGAGGAUCACCCAUGUGUAUGUAUGUAGUCAUGUAUCUCAGGUAGGUCGCGCUGUUACAU [Exclusion Arginine B 2]
apparent KD of MS2 coat protein (input ligand: arginine 13.2 mM): 80 nM
apparent KD of MS2 coat protein (input ligand: none): 185 nM
apparent KD of MS2 coat protein [1]: 178 nM
apparent KD of MS2 coat protein [2]: 207 nM
apparent KD of MS2 coat protein [3]: 106 nM

AAAUUAUCGGCGGCCGCCACUAGAGUUAGGCUUAUGUACUGGGUAACAUGAGGAUCACCCAUGUAUAGGACCGGGCCAUAAUAAA [Same State - Tryptophan B (Freestyle 4)]
apparent KD of MS2 coat protein (input ligand: arginine 13.2 mM): 38.7 nM
apparent KD of MS2 coat protein (input ligand: none): 55.2 nM
apparent KD of MS2 coat protein [1]: 88.9 nM
apparent KD of MS2 coat protein [2]: 57.5 nM
apparent KD of MS2 coat protein [3]: 72.1 nM

AACAUCACAACGGCCGCCACUGCACAUGACAACAUGAGGAUCACCCAUGUGGAUCACCCAUGUCCCAGGACCGGGUUAUGAGGAU [Same State - Tryptophan B #1]
apparent KD of MS2 coat protein (input ligand: arginine 13.2 mM): 23.7 nM
apparent KD of MS2 coat protein [1]: 39.9 nM
apparent KD of MS2 coat protein [2]: 33.6 nM

AACAUGAGGAUCACCCAUGUAUUGGGUGAUACCAGCCUGAAUAAUGGCCCUUGGCAGCACCGCGCUAACUUUAUGUCUGCGAAAC [Erterean]
apparent KD of MS2 coat protein (input ligand: arginine 13.2 mM): 87.3 nM
apparent KD of MS2 coat protein [1]: 456 nM
apparent KD of MS2 coat protein [3]: 118 nM

AACAUGAGGAUCACCCAUGUCCUCGUGAUUCGAGGACCGGUACGGCCGCCACUCGGUCCUCGCGAGGAGGAGUCAAAGACUCCAA [Omei Trp A SS A v1]
apparent KD of MS2 coat protein (input ligand: arginine 13.2 mM): 98 nM
apparent KD of MS2 coat protein (input ligand: none): 144 nM
apparent KD of MS2 coat protein [1]: 229 nM
apparent KD of MS2 coat protein [2]: 204 nM
apparent KD of MS2 coat protein [3]: 137 nM

AACAUGAGGAUCACCCAUGUGUCCUCGAAACGAGGACCGGUACGGCCGCCACUCGAAGCAUGUUGACGAAAAGUCAGCAUGCAAA [Mat - Exclusion - Trytophan A - D14]
apparent KD of MS2 coat protein (input ligand: arginine 13.2 mM): 96.4 nM
apparent KD of MS2 coat protein [1]: 292 nM
apparent KD of MS2 coat protein [2]: 353 nM

AACAUGGGAUUAAAAUAAAUAAUAACUGAUACCAGACUAUAUAAUGUCCCUUGGCAGCAGAUACAUGAGGAUCACCCAUGUAUUA [JR_Nu_ExcTheophyA_Sub023]
apparent KD of MS2 coat protein (input ligand: arginine 13.2 mM): 12.2 nM
apparent KD of MS2 coat protein [1]: 14.9 nM
apparent KD of MS2 coat protein [3]: 12.8 nM

AACUGAAGCACCUUAUGCGGCGGCAAAACCCGAGGACCGGUACGGCCGCCACUCGAGUCGCAACAUGAGGAUCACCCAUGUGUAU [theeternabot_exclusion_MS2_Trp_A_30]
apparent KD of MS2 coat protein (input ligand: arginine 13.2 mM): 32.5 nM
apparent KD of MS2 coat protein [1]: 55.8 nM
apparent KD of MS2 coat protein [2]: 78.8 nM

AAGAAAACAUGAGCAAAGCUCAUGUGCGAAGGAGCGGCGGAAACGCCAGGUAGGUCGCGCACAUGAGCAUCAGCCAUGUGUAUCA [Omei Arginine B SS A v3]
apparent KD of MS2 coat protein (input ligand: arginine 13.2 mM): 43.5 nM
apparent KD of MS2 coat protein (input ligand: none): 36.7 nM
apparent KD of MS2 coat protein [1]: 76.9 nM
apparent KD of MS2 coat protein [2]: 101 nM
apparent KD of MS2 coat protein [3]: 19.4 nM

AAGAGACAUGAGGAUCACCCAUGUGUUGAUACCAGAAACACAAAGUUCCCUUGGCAGCAAAUCUGAGCGAAACGAUCUAGAGCGC [theeternabot_sameState_MS2_Theo_A_30]
apparent KD of MS2 coat protein (input ligand: arginine 13.2 mM): 43.3 nM
apparent KD of MS2 coat protein [1]: 84.9 nM
apparent KD of MS2 coat protein [3]: 70.6 nM

AAGAUACUCUGAAGGAGCGGCAUAAAACAUGAGGAUCACCCAUGUGCGCGGGUGUAAUUAUGCCAGGUAGGUCGCAGAGUAUUUA [#03 Same State - Arginine B]
apparent KD of MS2 coat protein (input ligand: arginine 13.2 mM): 168 nM
apparent KD of MS2 coat protein (input ligand: none): 401 nM
apparent KD of MS2 coat protein [1]: 373 nM
apparent KD of MS2 coat protein [2]: 629 nM
apparent KD of MS2 coat protein [3]: 412 nM

AAGCGCACAUGAGGAUCACCCAUGUGCGGCCGAGGACCGGUACGGCCGCCACUCGGAACUAGAAAUAGGAACGGGUAGUGCGCAA [TryptophanA Sol_1]
apparent KD of MS2 coat protein (input ligand: arginine 13.2 mM): 10.6 nM
apparent KD of MS2 coat protein (input ligand: none): 11.7 nM
apparent KD of MS2 coat protein [1]: 13.3 nM
apparent KD of MS2 coat protein [2]: 13.6 nM
apparent KD of MS2 coat protein [3]: 10.9 nM
